In US11325945B2, “Peptide based PCSK9 vaccine” (CADILA HEALTHCARE LIMITED, priority 2017, dated 2022):
Non-standard residues stand in square brackets, D forms with d. Primed or numbered codes have the meaning given here. No end group written: not given here. 2‑aminophenyl pentanoic acid = 2-Aminophenyl pentanoic acid; Hyp = O=C(O)[C@@H]1C[C@@H](O)CN1; NMeI = CC[C@H](C)[C@H](NC)C(=O)O; hArg = N=C(N)NCCCC[C@H](N)C(=O)O; Cit = NC(=O)NCCC[C@H](N)C(=O)O; Nle = CCCC[C@H](N)C(=O)O; Aib = CC(C)(N)C(=O)O

Assays:
recombinant human PCSK9 = target: T1, recombinant human PCSK9 (Homo sapiens, UniProt Q8NBP7); test: Affinity of new peptides for recombinant human PCSK9 by surface plasmon resonance (Biacore T200); assay type: binding; conditions: SPR, 25° C.
T1 construct: His; purchased BPS Biosciences
T1 sequence (Q8NBP7 153-692): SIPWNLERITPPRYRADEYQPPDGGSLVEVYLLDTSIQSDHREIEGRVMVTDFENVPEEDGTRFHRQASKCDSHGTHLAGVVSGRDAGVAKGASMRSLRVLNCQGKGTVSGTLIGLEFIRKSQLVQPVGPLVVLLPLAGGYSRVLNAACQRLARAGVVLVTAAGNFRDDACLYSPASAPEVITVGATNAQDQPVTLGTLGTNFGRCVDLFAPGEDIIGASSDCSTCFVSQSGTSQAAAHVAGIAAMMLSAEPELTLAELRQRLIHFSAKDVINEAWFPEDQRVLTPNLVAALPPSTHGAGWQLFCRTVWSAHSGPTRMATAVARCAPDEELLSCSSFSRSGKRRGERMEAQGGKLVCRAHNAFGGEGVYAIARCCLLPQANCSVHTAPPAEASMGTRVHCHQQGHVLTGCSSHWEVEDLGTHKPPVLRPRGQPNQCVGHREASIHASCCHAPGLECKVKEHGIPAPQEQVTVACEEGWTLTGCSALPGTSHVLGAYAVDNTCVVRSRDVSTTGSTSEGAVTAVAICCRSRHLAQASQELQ
Description: (§1) Affinity parameters of new peptides for recombinant human PCSK9 were analyzed by surface plasmon resonance (SPR), using a Biacore instrument (Biacore T200, GE Healthcare). SPR experiments were performed at 25° C. with a BIACORE T200 apparatus (GE Healthcare, Uppsala, Sweden).
(§2) Purified recombinant human PCSK9 (His-tagged, BPS Biosciences) diluted to 100-150 μg/mL in 10 mM acetate buffer, pH 5.0, was immobilized on one of the four flow cells of a Series S Sensor Chip CMS to a level of approximately 6000 to 8000 RU (resonance units) by the use of amine-coupling chemistry. The surface was blocked with 1M ethanolamine, pH 8.5. Whereas one flow cell was immobilized as blank for reference subtraction (no PCSK9). 10 mM Hepes (pH 7.4) with 150 mM NaCl was used as running buffer. The rest two flow cells were saved for future use.
(§3) 100× Stock solutions of NCE (new peptides) were made in 100% DMSO and were diluted to range of concentrations in 10 mM Hepes, pH7.4+150 mM NaCl so that the final conc of DMSO is kept at 1%. Binding/Kinetics studies were conducted by passing various concentrations of NCEs over blank as well as ligand (protein) immobilized surface. Each cycle consisted of a 60 s or 120 s analyte (diluted small molecule drug) injection at flow rate with between 5 to 30 μL/min (the association phase), followed by a dissociation phase with between 60 to 180 s. If required, regeneration was done using a 30 s (15 μL) injection of 10 mM glycine/HCl (pH 1.5) and 20 s or 30 s (10 or 15 μL) injection of 10 mM NaOH. The data were analyzed using the Biacore T200 Evaluation software. All the curves were reference-subtracted. Baselines were adjusted to zero for all curves and data were presented as binding RU (Average of 5 s window) 5 s before end of sample injection.
For KD (equilibrium dissociation constant) determinations analyte curves were subtracted from buffer blank and modeled assuming a simple 1:1 interaction to generate the kinetic data.

PCSK9 = test: Immunogenicity study in BALB/c mice: anti-PCSK-9 ELISA antibody titers in serum; assay type: in vivo, mouse; conditions: peptide formulations, in words
Description: (§4) Female BALB/c mice of 12-15 weeks of age issued from animal house and kept for […]. Mice had access to food and water ad libitum and were kept under a 12 hrs light/dark cycle. On Day-0 (pre-treatment) animals bled and serum was harvested for total cholesterol measurement. Animals were randomized and grouped to various treatments based on their total cholesterol and body weights. On next day of Day-0 (pre-treatment) blood collection animals were immunised with 0.3 ml of vaccine formulations as mentioned Table No. 1 by subcutaneous or intramuscular route. Next booster injection was given on 2 weeks and 4 weeks after first injection and animals were bled for immunogenicity measurement on two weeks thereafter till week 7 and then every four week till 32 week, detailed schedule of blood collection was Day-0 (pre-treatment) from there 5th, 7th, 20th, 24th, 28th, 32nd, 45th and 57th week after first vaccine administration. Serum was separated and serum total cholesterol was measured and immunogenicity or antibody confirmation was done using ELISA for PCSK9 antibody titer, binding of serum antibodies with human PCSK9 using Surface plasmon resonance (SPR) assay and LDLR-PCSK9 interaction inhibition assay.
At specific intervals of time (15 days post immunization with each booster), serum samples were collected from all groups of mice. 96-well ELISA plates (#442402) were pre-coated with PCSK-9 protein 50 ng/well and plate incubated overnight at 2-8° C. Next day, wells were washed to remove unbound protein and blocked in 2% skimmed milk-PB ST for 2 hours, and washed with PBST. Sera samples were diluted 1:20 with 0.2% skimmed milk made in PBST. Appropriate volume of samples and standards was added to each well, and incubated for 1 hour at 37° C. Anti-mouse IgG secondary HRP-labeled antibody was added to each well and incubated at 37° C. for 1 hour, then washed. […] Plates were read at 492 nm on a Spectramax microplate reader. […] By using the negative control value, cut-off value was calculated and the corrected OD's above the cut off value were treated as […]. […]

LDLR-PCSK9 interaction = LDLR-PCSK9 interaction inhibition assay with serum from vaccine treated animals (PCSK9[Biotinylated]-LDLR Binding Assay Kit); assay type: biochemical; conditions: peptide formulations, week 5, in words
Description: as §4
Inhibition of LDLR-PCSK9 interaction by antibody (Ab) in serum from vaccine treated animal were assayed using BPS Bioscience in-vitro PCSK9[Biotinylated]-LDLR Binding Assay Kit (BPS Bioscience, San Diego, Calif., USA) with minor modifications. First, LDLR ectodomain is coated on a 96-well plate and plate was incubated overnight. Next, PCSK9-biotin was diluted in 1×PCSK9 assay buffer to obtain 2.5 ng/μl (50 ng/20 μl) concentration and this master mix, test inhibitor (serum samples from animal studies), inhibitor buffer was added to LDL-R coated plate and incubated at room temperature for 2 hours. Finally, the plate is treated with streptavidin-HRP followed by addition of an HRP substrate to produce chemiluminescence, which was then measured using a chemiluminescence reader according to the manufacturer's instructions. […]

human PCSK9 = test: Serum antibody detection by affinity determination against human PCSK9 using SPR assay; assay type: binding
Description: as §1, §2
as §3, with “Baselines were adjusted to zero for all curves and data were presented as binding RU (Average of 5 s window) 5 s before end of sample injection.” left out
Female BALB/c mice of 12-15 weeks of age issued from animal house and kept for 2-3 acclimatization. […] Serum was separated and serum total cholesterol was measured and immunogenicity or antibody confirmation was done using ELISA for PCSK9 antibody titer, binding of serum antibodies with human PCSK9 using Surface plasmon resonance (SPR) assay and LDLR-PCSK9 interaction inhibition assay.

Row | Binding - Response Unit(RU) (recombinant human PCSK9; peptide 50 μM) | Binding - Response Unit(RU) (recombinant human PCSK9; peptide 100 μM) | LDLR-PCSK9 interaction inhibition compared with Seq. ID No.1 (LDLR-PCSK9 interaction) | Substance | antibody titers against human PCSK9 as compared to Seq.ID.No.1 (PCSK9) | antibody response (SPR) as compared to Seq.ID.No. 1 (human PCSK9; week 5, in words) | antibody response (SPR) as compared to Seq.ID.No. 1 (human PCSK9; week-57, in words)
1 | 2.30 RU | 7.10 RU |  | 5 (SIPWNLER[Aib]TPC) [compound 5] |  |  | 
2 |  |  | significantly higher | SIPWNLE-Cit-ITPC (SIPWNLE[Cit]ITPC) [Seq. ID. No. 12] | higher | significantly higher antibody response | significantly higher antibody response
3 | 9.75 RU | 37.35 RU |  | 13 (SIPWNLERI[Aib]PC) [compound 13] |  |  | 
4 | 10.20 RU | 17.85 RU |  | 18 (SIP[2‑aminophenyl pentanoic acid]NLERITPC) [compound 18] |  |  | 
5 | 7.10 RU | 15.00 RU |  | 14 ([Aib]IPWNLERITPC) [compound 14] |  |  | 
6 | 7.4 RU |  |  | 1 (SIPWNLERITPC; PCSK9) [compound 1] |  |  | 
7 | 11.45 RU | 29.85 RU |  | 15 (S[NMeI]IPWNLERITPC) [compound 15] |  |  | 
8 |  |  | significantly higher | SI-Hyp-WNLERITPC (SI[Hyp]WNLERITPC) [Seq. ID. No. 8] | higher | significantly higher antibody response | 
9 | 5.70 RU | 13.25 RU |  | 8 (SI[Hyp]WNLERITPC) [compound 8] |  |  | 
10 | 6.65 RU | 16.00 RU |  | 7 (SIPWN[Nle]ERITPC) [compound 7] |  |  | 
11 | 3.10 RU | 6.70 RU |  | 12 (SIPWNLE[Cit]ITPC) [compound 12] |  |  | 
12 | 3.00 RU | 7.50 RU |  | 10 (SIPWN[Aib]ERITPC) [compound 10] |  |  | 
13 |  |  | significantly higher | SIPWN-Nle-ERITPC (SIPWN[Nle]ERITPC) [Seq. ID. No. 7] | higher |  | 
14 | 35.15 RU | 85.90 RU |  | 19 (SIP[(S)‑2‑amino‑3‑(2′-ethyl-4′-methoxy-(1,1′-biphenyl)-4-yl)propanoic acid]NLERITPC) [compound 19] |  |  | 
15 | 6.55 RU | 17.50 RU |  | 6 (SIPWNLE[hArg]ITPC) [compound 6] |  |  | 
16 | 13.05 RU | 30.00 RU |  | 4 (SIPWNLER[Nle]TPC) [compound 4] |  |  | 
